Reference: paper PMC8379176 (Nature Communications, 2021)

Tests used:
Assay in all cases: AlphaScreen or HTRF; saturation binding on HEK293 cells transfected with SNAP-ghrelin receptor (WT or mutants) labelled with SNAP-Lumi4-Tb; increasing concentrations of ghrelin-A2 in the presence or absence of 10 uM unlabeled ghrelin, 1 h at R.T.; HTRF ratio 665 nm/620 nm; one Kd for each of three experiments
[1] = molecular target: N-terminal-SNAP-tagged ghrelin receptor, wild type (human) (UniProt Q92847)
[2] = molecular target: N-terminal-SNAP-tagged ghrelin receptor F312A (human) (UniProt Q92847)
[3] = molecular target: N-terminal-SNAP-tagged ghrelin receptor Q302A (human) (UniProt Q92847)

“ghrelin-A2 (full-length ghrelin labeled with the dye A2 on an additional cysteine at the C-terminal end) (peptide)” showed a Kd [1] of 11 nM, a Kd [2] of 78 nM and a Kd [3] greater than 500 nM.
